Laboratory results: patent publication US20150177248

Molecular target: T1, acetylated p53 peptide (p53-382/diAc), P04637
T1 chain: RHKK

B1: SIRT7 (sirtuin 7) protein (protein)
chain: MAAGGLSRSERKAAERVRRLREEQQRERLRQVSRILRKAAAERSAEEGRLLAESADLVTELQGRSRRREGLKRRQEEVCDDPEELRGKVRELASAVRNAKYLVVYTGAGISTAASIPDYRGPNGVWTLLQKGRSVSAADLSEAEPTLTHMSITRLHEQKLVQHVVSQNCDGLHLRSGLPRTAISELHGNMYIEVCTSCVPNREYVRVFDVTERTALHRHQTGRTCHKCGTQLRDTIVHFGERGTLGQPLNWEAATEAASRADTILCLGSSLKVLKKYPRLWCMTKPPSRRPKLYIVNLQWTPKDDWAALKLHGKCDDVMRLLMAELGLEIPAYSRWQDPIFSLATPLRAGEEGSHSRKSLCRSREEAPPGDRGAPLSSAPILGGWFGRGCTKRTKRKKVT
For B1, the deacetylation activity was “significantly increased”.
